Results as given in patent US20110206671A1, “AXON REGENERATION PROMOTER” (priority 2004, published 2011).

B1: RGM-like protein: rat protein homologous to chicken repulsive guidance molecule, released from RGM-CHO cells by PI-PLC; SEQ ID NO: 4 (protein, listed as Rattus norvegicus)
chain: MGRGAGRSALGLWPTLAFLLCSFPAAISPCKILKCNSEFWSATSSGSHAPASDDVPEFCAALRTYALCTRRTARTCRGDLAYHSAVHGIEDLMSQHNCSKDGPTSQPRVRTLPPAGDSQERSDSPEICHYEKSFHKHSAAPNYTHCGLFGDPHLRTFTDHFQTCKVQGAWPLIDNNYLNVQVTNTPVLPGSAATATSKLTIIFKNFQECVDQKVYQAEMDELPSAFADGSKNGGDKHGANSLKITEKVSGQHVEIQAKYIGTTIVVRQVGRYLTFAVRMPEEVVNAVEDRDSQGLYLCLRGCPLNQQIDFQAFRANAESPRRPAAASPSPVVPETFPYETAVAKCKEKLPVEDLYYQACVFDLLTTGDVNFTLAAYYALEDGKMLHSNKDKLHLFERTRELPGAVAAAAFPLAPEMLPGTVTLLVLLPLFW

What was measured:
[1] = test system: cerebellar granule neurons on rat RGM-like protein-expressing CHO cells; experiment: Axon growth assay, coculture of cerebellar granule neurons on RGM-CHO cells; format: cell-based; details: 10 μM Y27632 added, 24 hours, compared with control CHO cells
Method: Cerebellar granule cells from rat pups at 8 days post-natal (P8) were dissociated by trypsinization (0.25% trypsin in PBS, 37° C., 15 minutes); resuspended in serum-containing medium; triturated; and washed three times with PBS. For the coculture assay, neurons were plated onto a confluent monolayer of RGM-CHO cells or control CHO cells in chamber slides. 10 μM Y27632 (Welfide Corporation, Osaka) was added to the cultures to inhibit ROCK (Rho kinase). The cultures were grown for 24 hours in serum-free DMEM/F12 medium.
(§1) For the soluble RGM assay, confluent monolayers of RGM-CHO cells or control CHO cells were incubated in serum-free DMEM/F12 with or without 2.5 U/mL PI-PLC (phosphatidylinositol-specific phospholipase C, Sigma). After the culture were centrifuged for 10 minutes at 13000 g, floating cells were removed by collecting the supernatant. A portion of the supernatant was subjected to Western blot analysis. Neurons were plated on the conditioned media on poly-L-lysine-coated chamber slides and were incubated for 12 or 24 hours. For the axon assay, the cells were fixed with 4% (w/v) paraformaldehyde and immunostained with a monoclonal antibody that recognizes β-tubulin III protein specifically present in neurons (TuJ1, 1:1000, Covance Research Products, Inc., Denver, USA). The length of the longest neurite for each β-tubulin III-positive neuron was then measured.

RhoA = experiment: Affinity precipitation of GTP-RhoA; format: cell-based, rat; details: cerebellar neurons from 7-day postnatal rats; 30 minutes after conditioned medium
Method: Cells were lysed in 50 mM Tris (pH 7.5) containing 1% Triton X-100 (TM), 0.5% sodium deoxycholate, 0.1% SDS, 500 mM NaCl, 10 mM MgCl2, 10 μg/mL leupeptin, and 10 μg/mL aprotinin.
The cell lysate was cleared by centrifugation at 4° C. for 10 minutes×13000 g, and the supernatant was incubated for 45 minutes at 4° C. with 20 μg GST-Rho binding domain of Rhotekin beads (TM, Upstate Biotech). The beads were washed four times with washing buffer (50 mM Tris (pH 7.5) containing 1% Triton X-100 (TM), 150 mM NaCl, 10 mM MgCl2, and 10 μg/mL each of leupeptin and aprotinin). Bound Rho was detected by Western blotting using monoclonal antibody against RhoA (Santa Cruz Biotech, Santa Cruz, Calif., USA).
The RhoA activity in neurons was measured. Conditioned medium was added to cerebellar neurons from 7-day postnatal rats and the RhoA activity was measured after 30 minutes had elapsed (FIG. 6).

[2] = test system: cerebellar granule neurons; experiment: Soluble RGM axon growth assay with conditioned media; format: cell-based, rat; details: medium obtained by PI-PLC treatment of RGM-like protein-expressing CHO cells; versus control CHO medium
Method: as §1

Row | Molecule | axon growth (average length of the longest axon of each neuron) [1] | RhoA activity in neurons (GTP-RhoA) (RhoA) | axon growth of neurons treated with conditioned medium [2]
1 | CC(N)[C@H]1CC[C@H](C(=O)Nc2ccncc2)CC1 (stereo partly drawn) [Y27632] | axon growth was about the same as for the control |  | 
2 | B1 |  | Rho activation was confirmed | significantly inhibited
